Measurements published in paper PMC11116815.

Molecular target: T1, chemokine (C-C motif) receptor (CCR)1 (human (endogenous in THP-1 and human monocytes)) (UniProt P32246)
T1 sequence: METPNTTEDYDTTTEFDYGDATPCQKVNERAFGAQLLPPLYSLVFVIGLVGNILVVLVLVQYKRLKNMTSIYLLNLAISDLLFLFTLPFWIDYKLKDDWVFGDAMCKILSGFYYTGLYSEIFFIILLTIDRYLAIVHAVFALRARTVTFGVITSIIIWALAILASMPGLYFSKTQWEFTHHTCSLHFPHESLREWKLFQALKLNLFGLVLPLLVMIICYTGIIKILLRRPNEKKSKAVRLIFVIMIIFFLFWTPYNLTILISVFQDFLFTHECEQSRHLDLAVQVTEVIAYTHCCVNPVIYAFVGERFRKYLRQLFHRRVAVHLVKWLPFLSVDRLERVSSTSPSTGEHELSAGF

EC50 of CCL23 for Gαi activation (TRUPATH BRET biosensor: Gαi1-Rluc8, Gβ3, Gγ9-GFP2) in HEK293T cells transfected with untagged CCR1 alone: 0.3 nM
B1: CCL23_(25-99) (ligand)
chain: RFHATSADCCISYTPRSIPCSLLESYFETNSECSKPGVIFLTKKGRRFCANPSDKQVQVCMRMLKLDTRIKTRKN
